# Source: the supplement of paper PMC9732359
# ± gives the uncertainty stated by the source.
# Assay: protein stability index of a GFP-peptide fusion (yeast GPS) (PSI 1-4); higher = more stable; sorted into four equal gates, so the index is relative within each strain
# Conditions: doa10∆
# In short: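 Mid-log yeast cultures in leucine-free medium, carrying a pooled plasmid library, were sorted into four equal gates by their GFP/Cherry fluorescence ratio. Each plasmid expressed Cherry along with GFP fused upstream of a tiled 17-residue yeast protein peptide. Plasmids recovered from each gate were PCR-amplified and Illumina-sequenced, with reads assigned to strains by barcodes. The protein stability index was obtained by summing each gate's read frequency weighted by its gate number.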
row,Sequence,protein stability index
1,LVREIAQDFKTDLRFQS [HHT1],2.55 ± 0.097
2,LVRRLSDIKQGYTQHGG [PRE9],2.5 ± 0.14
3,LVSRGGCGNTQPTIRKD [RPO21],2.96 ± 0.07
4,LVTIEGALIHKAGLMTG [SMC1],2.99 ± 0.14
5,LVTKILPLKKNEIIGDR [YCG1],2.88 ± 0.22
6,LVYNMTSFEQGEITFDG [RPT4],2.65 ± 0.095
7,LVYQYKGAGLSMGTMIC [PRE2],2.06 ± 0.083
8,LWKLLSTVKVSDLNLTD [YLR018C/POM34],2.35 ± 0.065
9,LWLKKVMEEEEQDCKCI [POP8],2.63 ± 0.077
10,LYDSLASTPSIRPDGRL [RRP42],2.64 ± 0.14
11,LYENIASSPIILEEGSS [RPN10],2.2 ± 0.04
12,LYNVMGINKKKLLAISK [RPC31],2.83 ± 0.26
13,LYQLVDIRDSSCQGNVI [YMR129W/POM152],3.02 ± 0.1
14,LYVVGLFDTYHASKAIG [RRP6],1.91 ± 0.045
15,LYYDEDINVESLTQSVC [PUP2],2.36 ± 0.061
16,MAHRVKVIPYSTFRLNL [RPO21],1.87 ± 0.07
17,MAILLLYNDADVLTLEN [CDC53],1.58 ± 0.09
18,MAKDNLTNLLSQLNIQL [SRP72],2.99 ± 0.077

row,Sequence,protein stability index
1,MAKKEGTPKTDSFIFDG [MED4],3.43 ± 0.13
2,MAKSKNHTAHNQTRKAH [RPL29],1.7 ± 0.058
3,MALKFVSIKFTNAAFPF [ECM29],2.09 ± 0.058
4,MAPNTSRKQKVIKTLTV [RPL22B],2.1 ± 0.18
5,MDNPRKLSKILRTEYGW [SNU114],3.11 ± 0.068
6,MDRTSLRKQYSAIDEEI [SMC3],2.28 ± 0.21
7,MDTSDDAFVATAFATEF [DLS1],2.82 ± 0.07
8,MDYHFIFSYLQFTSSLF [RGR1],2.08 ± 0.046
9,MEDEILSLGMDFIKFDQ [BRN1],3.23 ± 0.061
10,MEDVKIQKEEEPENNTV [SWI3],3.31 ± 0.11
11,MEKKKSSSLSLESFMKS [SNM1],1.84 ± 0.04
12,MEMIENRTMDGKPVSLP [FAS1],3.38 ± 0.15
13,MENDKGQLVELYVPRKC [RPS21A],3.17 ± 0.14
14,MEVLGIEAGRAALYKEV [RPO21],2.55 ± 0.14
15,MEYHISNTDETKGENYQ [FAS2],3.03 ± 0.12
16,MFLEFQSTQTDLEKTER [SMC2],3.31 ± 0.1
17,MFRYKTNLYKLKEERAI [PUP3],2.87 ± 0.22
18,MGENEKPDVTYADVGGL [RPT3],3.07 ± 0.18

# Same assay, conditions: pdr5∆
row,Sequence,protein stability index
1,LVREIAQDFKTDLRFQS [HHT1],3 ± 0.078
2,LVRRLSDIKQGYTQHGG [PRE9],2.06 ± 0.25
3,LVRYGLAEKVEKASRQQ [RPS24A],3.33 ± 0.11
4,LVSRGGCGNTQPTIRKD [RPO21],2.74 ± 0.11
5,LVTIEGALIHKAGLMTG [SMC1],2.71 ± 0.12
6,LVTKILPLKKNEIIGDR [YCG1],2.9 ± 0.18
7,LVYNMTSFEQGEITFDG [RPT4],2.33 ± 0.079
8,LVYQYKGAGLSMGTMIC [PRE2],2.3 ± 0.097
9,LWKLLSTVKVSDLNLTD [YLR018C/POM34],2.26 ± 0.044
10,LWLKKVMEEEEQDCKCI [POP8],2.7 ± 0.068
11,LYDSLASTPSIRPDGRL [RRP42],2.81 ± 0.096
12,LYENIASSPIILEEGSS [RPN10],2.37 ± 0.047
13,LYGPPGTGKTMLVKAVA [RPT3],1.17 ± 0.11
14,LYNVMGINKKKLLAISK [RPC31],2.3 ± 0.16
15,LYQLVDIRDSSCQGNVI [YMR129W/POM152],3.12 ± 0.089
16,LYVVGLFDTYHASKAIG [RRP6],2.38 ± 0.043
17,LYYDEDINVESLTQSVC [PUP2],2.25 ± 0.052
18,MAESLVDLEEVMDTIQE [SSN8],3.02 ± 0.16
19,MAHRVKVIPYSTFRLNL [RPO21],1.82 ± 0.071
20,MAILLLYNDADVLTLEN [CDC53],1.93 ± 0.063

row,Sequence,protein stability index
1,MAKDNLTNLLSQLNIQL [SRP72],3.13 ± 0.084
2,MAKKEGTPKTDSFIFDG [MED4],3.22 ± 0.15
3,MAKSKNHTAHNQTRKAH [RPL29],2.41 ± 0.08
4,MALKFVSIKFTNAAFPF [ECM29],1.98 ± 0.058
5,MAPNTSRKQKVIKTLTV [RPL22B],2 ± 0.088
6,MDNPRKLSKILRTEYGW [SNU114],2.99 ± 0.081
7,MDTSDDAFVATAFATEF [DLS1],3.08 ± 0.09
8,MDYHFIFSYLQFTSSLF [RGR1],1.39 ± 0.043
9,MEDEILSLGMDFIKFDQ [BRN1],3.35 ± 0.052
10,MEDVKIQKEEEPENNTV [SWI3],3.35 ± 0.073
11,MEKESVYNLALKCAERQ [NUT1],2.1 ± 0.26
12,MEKKKSSSLSLESFMKS [SNM1],1.91 ± 0.045
13,MEMIENRTMDGKPVSLP [FAS1],3.24 ± 0.22
14,MEVLGIEAGRAALYKEV [RPO21],2.9 ± 0.2
15,MEYHISNTDETKGENYQ [FAS2],3.22 ± 0.14
16,MFLEFQSTQTDLEKTER [SMC2],2.8 ± 0.14
17,MFNNHEIDTILSTLRME [RPN9],3.51 ± 0.2
18,MFRYKTNLYKLKEERAI [PUP3],2.67 ± 0.17
19,MGENEKPDVTYADVGGL [RPT3],3.41 ± 0.074

# Same assay, conditions: san1∆
row,Sequence,protein stability index
1,LVREIAQDFKTDLRFQS [HHT1],2.65 ± 0.076
2,LVRRLSDIKQGYTQHGG [PRE9],2.48 ± 0.09
3,LVRYGLAEKVEKASRQQ [RPS24A],3.38 ± 0.098
4,LVSRGGCGNTQPTIRKD [RPO21],2.83 ± 0.043
5,LVTIEGALIHKAGLMTG [SMC1],2.92 ± 0.13
6,LVTKILPLKKNEIIGDR [YCG1],2.6 ± 0.24
7,LVYNMTSFEQGEITFDG [RPT4],2.97 ± 0.085
8,LVYQYKGAGLSMGTMIC [PRE2],2.18 ± 0.16
9,LWKLLSTVKVSDLNLTD [YLR018C/POM34],2.3 ± 0.06
10,LWLKKVMEEEEQDCKCI [POP8],3.05 ± 0.078
11,LYDSLASTPSIRPDGRL [RRP42],2.4 ± 0.18
12,LYENIASSPIILEEGSS [RPN10],2.35 ± 0.06
13,LYGPPGTGKTMLVKAVA [RPT3],1.15 ± 0.21
14,LYNVMGINKKKLLAISK [RPC31],3.67 ± 0.095
15,LYQLVDIRDSSCQGNVI [YMR129W/POM152],2.86 ± 0.058
16,LYVVGLFDTYHASKAIG [RRP6],1.88 ± 0.069
17,LYYDEDINVESLTQSVC [PUP2],2.46 ± 0.064
18,MAESLVDLEEVMDTIQE [SSN8],3.2 ± 0.19
19,MAHRVKVIPYSTFRLNL [RPO21],1.2 ± 0.12
20,MAILLLYNDADVLTLEN [CDC53],2.5 ± 0.084

row,Sequence,protein stability index
1,MAKDNLTNLLSQLNIQL [SRP72],3.15 ± 0.074
2,MAKKEGTPKTDSFIFDG [MED4],2.94 ± 0.17
3,MAKSKNHTAHNQTRKAH [RPL29],1.96 ± 0.095
4,MALKFVSIKFTNAAFPF [ECM29],1.76 ± 0.078
5,MAPNTSRKQKVIKTLTV [RPL22B],2.6 ± 0.13
6,MDNPRKLSKILRTEYGW [SNU114],2.91 ± 0.059
7,MDTSDDAFVATAFATEF [DLS1],2.75 ± 0.081
8,MDYHFIFSYLQFTSSLF [RGR1],1.25 ± 0.076
9,MEDEILSLGMDFIKFDQ [BRN1],3.27 ± 0.041
10,MEDVKIQKEEEPENNTV [SWI3],3.41 ± 0.058
11,MEKESVYNLALKCAERQ [NUT1],2.91 ± 0.21
12,MEKKKSSSLSLESFMKS [SNM1],2.62 ± 0.06
13,MEMIENRTMDGKPVSLP [FAS1],2.75 ± 0.16
14,MENDKGQLVELYVPRKC [RPS21A],3.23 ± 0.12
15,MEVLGIEAGRAALYKEV [RPO21],2.4 ± 0.16
16,MEYHISNTDETKGENYQ [FAS2],2.75 ± 0.2
17,MFLEFQSTQTDLEKTER [SMC2],2.86 ± 0.25
18,MFNNHEIDTILSTLRME [RPN9],2.84 ± 0.13
19,MFRYKTNLYKLKEERAI [PUP3],1.78 ± 0.17
20,MGENEKPDVTYADVGGL [RPT3],3.28 ± 0.1

# Same assay, conditions: ubr1∆
row,Sequence,protein stability index
1,LVREIAQDFKTDLRFQS [HHT1],2.88 ± 0.099
2,LVRYGLAEKVEKASRQQ [RPS24A],3.19 ± 0.19
3,LVSRGGCGNTQPTIRKD [RPO21],2.9 ± 0.043
4,LVTIEGALIHKAGLMTG [SMC1],2.95 ± 0.12
5,LVTKILPLKKNEIIGDR [YCG1],2.83 ± 0.27
6,LVYNMTSFEQGEITFDG [RPT4],2.94 ± 0.17
7,LVYQYKGAGLSMGTMIC [PRE2],2.24 ± 0.11
8,LWKLLSTVKVSDLNLTD [YLR018C/POM34],2.52 ± 0.039
9,LWLKKVMEEEEQDCKCI [POP8],2.99 ± 0.051
10,LYDSLASTPSIRPDGRL [RRP42],2.99 ± 0.088
11,LYENIASSPIILEEGSS [RPN10],2.35 ± 0.036
12,LYGPPGTGKTMLVKAVA [RPT3],1.37 ± 0.14
13,LYNVMGINKKKLLAISK [RPC31],3.5 ± 0.26
14,LYQLVDIRDSSCQGNVI [YMR129W/POM152],2.96 ± 0.048
15,LYVVGLFDTYHASKAIG [RRP6],2.49 ± 0.035
16,LYYDEDINVESLTQSVC [PUP2],2.21 ± 0.031
17,MAESLVDLEEVMDTIQE [SSN8],3.2 ± 0.093
18,MAHRVKVIPYSTFRLNL [RPO21],2.29 ± 0.095
19,MAILLLYNDADVLTLEN [CDC53],2.75 ± 0.06

row,Sequence,protein stability index
1,MAKDNLTNLLSQLNIQL [SRP72],2.96 ± 0.061
2,MAKKEGTPKTDSFIFDG [MED4],3.28 ± 0.092
3,MAKSKNHTAHNQTRKAH [RPL29],2.32 ± 0.067
4,MALKFVSIKFTNAAFPF [ECM29],1.82 ± 0.071
5,MAPNTSRKQKVIKTLTV [RPL22B],1.97 ± 0.093
6,MDNPRKLSKILRTEYGW [SNU114],2.94 ± 0.066
7,MDRTSLRKQYSAIDEEI [SMC3],2.63 ± 0.25
8,MDTSDDAFVATAFATEF [DLS1],2.8 ± 0.044
9,MDYHFIFSYLQFTSSLF [RGR1],1.21 ± 0.047
10,MEDEILSLGMDFIKFDQ [BRN1],3.15 ± 0.043
11,MEDVKIQKEEEPENNTV [SWI3],3.41 ± 0.057
12,MEKKKSSSLSLESFMKS [SNM1],2.04 ± 0.04
13,MEMIENRTMDGKPVSLP [FAS1],3.39 ± 0.096
14,MENDKGQLVELYVPRKC [RPS21A],3.25 ± 0.091
15,MEVLGIEAGRAALYKEV [RPO21],2.76 ± 0.12
16,MFLEFQSTQTDLEKTER [SMC2],2.64 ± 0.15
17,MFNNHEIDTILSTLRME [RPN9],3.03 ± 0.071
18,MFRYKTNLYKLKEERAI [PUP3],2.1 ± 0.093
19,MGENEKPDVTYADVGGL [RPT3],3.31 ± 0.079
